# Laboratory results taken from the DeepSol protein solubility set.
# Test: soluble on expression in E. coli; label from the status in PepcDB or PDB records
row,Sequence,soluble on expression in E. coli
1,MKTTDLFSTLENNILRNSLDSTTKDKLLSNLSLLRKASLNILITGSTGSGKSSTINALFDMTVAQVGIDSDPHTESVQCYHLNNLVLWDTPGLGDGIDEDKKHVQAIKQLLNKRDDHGQLAIDLVLVILDGGSRDLGTPLRLINDIVIPQLGDDAEKRLIVAVNQADVALKGPESWNYSDNLPTDKAKAFLEKQQNSIARRIHKATQINVKTLYFVAGYSDGVNRQRPYNLSKLLYTIVEILPNNKRVMLANRTISNDADNWKDNDASDYNKKTTLSLWEAIVETTLQGASIGSDIGSIFGKPGEILGKVVGSVAGLFFGGLRYTFGFLEHHHHHH,soluble
2,MKTVTEFQNKNILVLGIAKSGYAAATLLQKLGANVIVNDGKPLAENVLAAELQAKGMDVVCGGHPLELLERNISLVVKNPGIPYSNPILVAAKEKQIPIVTEVELAYRISEAPFVGITGSNGKTTTTMLTFEMLKEGQKHPVIAGNIGTVACEVAQDAKENEVVVTELSSFQLMGVELFQPKIAAFLNLFEAHLDYHGTKKEYGLAKANIFKNQTENDYSVINADDADVMALSAYSKGQKVLFSTTKEIEDGACIKDNALYFKAEKVVEVDDIVLPGQHNLENILAAMSIAKLLGVSNEAITAVLKRFTGVKHRLEYVTTINNRKFYNDSKATNMLATEKALSAFTQPTVLLAGGLDRGNEFDDLIPYFKNVKAIVTFGQTAPKLVRAAEKAGLDTIESVDTLDEAVVKAYAHSTDGDVILLSPACASWDQFKTFEERGDIFIQAVHKLI,not soluble
3,MKVAEIIVVEGKDDTRRIQEVVAADTIETIGSAINDEILTQIEHAQETRGVIIFTDPDYSGEKIRKTIMEVVPDAKHAFLSRKVAVPKKNGGSLGVEHASDEAIIEALKKVVTPVQADEDYQEIPRQTLVEYGLIAGANAKKYRELLGDDLRIGYTNSKQLVKRLSMFRITEAELKESMTRILKELANEE,not soluble
4,MKVEIGKIVNTHGIKGEIKVKSNSDFTETRFQPGELVIIERKNKEPLEFTIASYRMHKGLHMLTFEGINNINDIEYLKGETIMQERDHEEIELGEHEFYYSDIIGCTVFDDDDTPIGRVTEIFETGANDVWVVKGDKEYLIPYIADVVKDIDVEGRRIQITPMEGLLDLEHHHHHH,soluble
5,MKVEKFKVLLYLKKSGLDKNGKAPIMGRITLNRTMAQFGCKLSCTPKLWNPRESRLDGKSKEAVEVNAKIDKLLLAINSAYESLVERKTDFDAKAIKDLFQCSADTQMTLLKQLDAIIADIESRIGIDYKKGTLPNYQYTRLTLGLFVKKRYGTDDVAFGELDEQFIREYMDFCLDERGLALDTVRHYLAILKKTCRIAFKAGHSERYHFMHFKLPQKKENPPKALTREDFLKIRDLEIPERRKSLALTRDLFLFACYTGTAYADTVSITEENLFRDEEGSLWLKYHRKKNKMLARVKLLPEALAMLEKYKDPTRPTLLPPQEFRVLRGNM,not soluble
6,MKVLDLIDKYYPQDNELKHILNVHSRSVADKALWIAGKHPELNLDTVFLEEAAMLHDIGIFLTHAPGIQCFGTEPYICHGYLGAGLVRKEGFPRHALVCERHTGAGLSLKDIMDQKLPVPHREMLPVSMEEQVICFADKFFSKTHLDREKTVEGARKSIAKYGDEGLQRFNNWCKLFL,not soluble
7,MKVLILGGGYTGQRLAQLLAAQSIPVLATTRSGQWPLDEPCVTFDAGSTPLLLPDPAALAGVTHVLSTIPPLGDGGDPVLSTLLPTLQYLSLQWCGYLSTTGVYGDTQGAWVDEDSPLQSTNRRSQQRIAIEAQWLASGLPAHIFRLPGIYGPGRSSFDRLRRGDNQRLLKPGHVFCRIHVDDIAAALWASLQQPNPGRIYNVSDDFPCEPALLIEAAAQLMGVELPPPLPVDAVELSPMAASFWSECRRVRNDRLKQELGVQLRYPSYREGLAAIWAAELEHHHHHH,not soluble
8,MKVLLINGSPHAKGCTYTALSEVAKALEEENIETEIFQIGTKPVRGCIGCGTCSKTGSGKCVFDDDTLNAGLEKAKTADGFIFGSPVHYAAASGALTSFLDRFFYAGKDFAYKPGAAIVSCRRGGAAAAFDQLNKYFTIANMPIVSSQYWNMVHGNTPEEVKQDLEGMQTMRTLGKNMAWLLKSIQAGKEAGVKLPEKEQTIRTNFIRLEHHHHHH,soluble
9,MKVNDRVTVKTDGGPRRPGVVLAVEEFSEGTMYLVSLEDYPLGIWFFNEAGHQDGIFVEKAE,soluble
10,MKWNLDPSHTSIDFKVRHMGIASVRGSLKVLSGSVETDEAGRPIQVEAVIDAASIATGEPQRDGHLRSADFLHAEQYPEIRFVSTQIEPLGGNRYRIQGNLTIRDITKPVTLEAEVSAPIKDPWGMQRVAASASGQINRKDWNLTWNQVLELGALLVGEEVKFNLEVEAVAPAPVAAQ,soluble
11,MKYDLKYLSVPLPEEIQRVKEFGDFASADIAIDFWLTKELPQALKERLIIEKDVIKMMRMNEYPHSFAKADQMMRDTFQDYQTEELIRLKETGLVDWVYIDGEPYFQLRFLANLIKTNAAYVARLREAESNQLEILRKKELKENIEQMQKNGGRKVRTTIKATIQVKKEFERPGERVRVHLPLPKACQQQSEIEILATSPEATYIAAEDAPQRTLCFETILKENQTFTVEYCYVNRMVYQQLEENNVDKMQPSFDLEEQLPHIRFTPYLRNLADEIVGDESNPLKKARLIYDFVTTKIHYSFMREYFTISNISEYAATNLKGDCGVQAILFITLCRIAGIPAKWQSGLYVSTHYTGCHDWAQFYIKPYGWLFADLSFGGGAYRDGDRQRWNHYFGNLDVFRMVANSEIQADFQPAKMQLRADPIDNQRGEFEYENEGLPYACLIVSQERLSMEELPFD,not soluble
12,MKYFMGPHVWQRTIADLEALGHQRVDTFEQAEAYINTEPRPLRIPTIPESVGFVQHCFTGVNQLIDAHVITETGVRWANMAGGFAQPVAESALGLMLSQAHHHKAFALAGTWRVARELDRIQQWLHSVGEPRCVVIFGAGGIAKELIRLLEPFGMHVIAVNRSGRSVAGADETFAMKDAQGLWSRGDFIVNILPLTQETKGLVDRDVFAQMKPSAIFINVGRGATVVTDDLVDALQRGVIAGAGLEVVDPEPLPDSHALHSMPNCTITPHMAASDHVAELHVARIFDANAQAFTRGETMPTEVNPHLGY,not soluble
13,MKYISPGFVDAHSHIGMIPDGLEWEFQEANDFYSPIAPHLRAVDGFDPYDEAFKEAIAGGVTTVATGPGSANVMGGIGLLAKTYEEGFEKIIKPEAFIKMALGPKRPREYKSKYPYPTTRMGTVALMRTWFKRAREFMEGKIKTDNIDEEEIEMLRLLARALKREIQVKIHLSTSPDEIYAAIRIIKEFNLNATIDHAFGSQLVADMLSREGIPVIYGPPMITRIASFFRYVDDKAPVLLFKKGVNVSIMTDHPVLPEKHLRLLAAVVARNGLSLDDALKLITINPAKALGIDRFVGSLEHHHHHH,not soluble
14,MKYLGLCTDLYELTMAQSYLYEGKTGTAVFSLFVRKLPEKRNFLISAGLETLVERIKNFKFGDEEIKYLKSLGIFKDDFLDYLKDFEFSGNVYAIPEGRIVFQNEPLVQVEAPIPEAQLLETLVINTIQFETMIASKAVRSYLVAKGKKLVDFGFRRAHGLEAGILAARASYIAGFDGTSNVEAGREFGIPVVGTMAHSYVMIFDKEEDAFRAFAKLYPKNAIFLIDTYDTIEAAKKVVDLAKEGVPVVGVRIDSGDIVKLSKEVRKILDENGLKNVRIIVSGGVDEYKIKEWFDRGAPIDAFGVGTKFITSADAPYFDIAYKLVEYEGKPKYKLSPGKKTFPYKRQVYRYYENGKMKYDETAKWESKREGEPLVELVMKNGKLIKELPSLKEIREVVMSELEKLPENYKDITKHYEYEVKILDWE,soluble
15,MKYLPQQDPQVFAAIEQERKRQHAKIELIASENFVSRAVMEAQGSVLTNKYAQGYPGRRYYGGCEYVDIVEELARERAKQLFGAEHANVQPHSGAQANMAVYFTVLEHGDTVLGMNLSHGGHLTHGSPVNFSGVQYNFVAYGVDPETHVIDYDDVREKARLHRPKLIVAAASAYPRIIDFAKFREIADEVGAYLMVDMAHIAGLVAAGLHPNPVPYAHFVTTTTHKTLRGPRGGMILCQEQFAKQIDKAIFPGIQGGPLMHVIAAKAVAFGEALQDDFKAYAKRVVDNAKRLASALQNEGFTLVSGGTDNHLLLVDLRPQQLTGKTAEKVLDEVGITVNKNTIPYDPESPFVTSGIRIGTAAVTTRGFGLEEMDEIAAIIGLVLKNVGSEQALEEARQRVAALTDGG,soluble
16,MKYRDLREFLNLLEQQGELVRVKQEIDPYLEMAEIADRTLRKAGPAILFENPKGYQMPVLCNLFGTPKRVALGMGQENTQALRELGKLLAFLKEPEPPKGFKELLGQLPQWKQILNMPSKTRDNAACQQIVIEGDAVNLYDLPIMHCHEEDIAPLITWGLTITQGPHKKRQNLGIYRQQLIAKNKLIMRWLSHRGGALDFQEWKATYPDKPFPVSVAIGADPATILAAVTPIPDTLPEYAFAGLLRGHKTEVIKSISNQLDVPASAEIVLEGYIDVNETALEGPYGDHTGYYNEQEYFPVFTVTHITMRKDAIYHSTYTGRPPDEPAVLGEALNEVFIPILQKQFPEIVDFYLPPEGCSYRLAVVTIKKQYAGHAKRVMMGVWSFLRQFMYTKFVIVCDDDINARNWKDVIWAITTRCDPSRDTTLIENTPIDYLDFASPIAGLGSKMGIDATNKWNGETIREWGKPITKNQQVVQHIDELWDQLGLLEHHHHHH,not soluble
17,MKYTLDQLNVYNPDGKAKSISIIHGLTISTSNTNSDTTGLTGCLYLTTKNQANDPSFSVYVIKQAQTVSTTQPNSTVVILNTELNPDISNYDQPLKTSYVTNINQSPDSDLFFQWDIPASGWTQKDVTNQFFENPIILETFDWNTMKKNFTRQFFDHIEPLQIGVKYWYFTASKPVSMTMESKYVSNLMYTATSVNTTGLIVNDFVFLEHVVNFPLDLTRVRTIGTLISAFPESSTINFVYKDDQSSSRQSFSTEQTHSLFDTYMQASSLTINATALIPGRFFCQYFGVTGDLLPPGTSTPSTPSTVETTMPSTTRISTTPSAAPHEFQLICFIIAFLLVL,not soluble
18,MKYVASFSGGKDSAAMLLLILEKRLLLDEIVFIDTGLEFKEIYDIIDDFEKRINFKITRIKAEKTFEEYFYTVNKQGKRKGQIWGFPYTLGAWCNSRLKLAPANKYFNSIGEHKRYIGIAFDEPSRYRRLEKNCIAPLYEAKMTEKDCLKYLEKKGFYYDIHHRFKRTGCY,not soluble
19,MLAKSIPLGIYEKALPAGECWLERLKLAKALGFDFVEMSLDETDARLARLDWSPEQRLALVKAVAETGVRVPSMCLSAHRRFPLGSEDDAVRHQGLEIMRKAIQLAQDVGIRVIQLAGYDVYYQQANDETRRRFRDGLKQSVEMASRAQVTLAMEIMDYPLMNSISKALGYAHYLNNPWFQLYPDIGNLSAWDNDVQMELKAGSGHIVAVHVKDTKPGVFKNVPFGEGVVDFERCFETLKQTGYCGPYLIEMWSETSADPLAEVAKARDWVKARMARAGLMEAA,not soluble
20,MLARGKTNLKIEEIRMHKHHEIHRVKPLMPALCRIRQGKKVINWETHTLTVDNNQIILFPCGYEFYIENYPEAGLYLAEMLYLPIDLIESFQKLYTVTDQIRNKTSFFLPQNPELIYCWEQLKTSVSRGFSTKIQEHLAMGVLLSLGVNHVNHLLLSYSKQSLISRCYNLLLSEPGTKWTANKVARYLYISVSTLHRRLASEGVSFQSILDDVRLNNALSAIQTTVKPISEIARENGYKCPSRFTERFHNRFNITPREIRKASRE,soluble
21,MLARLVLGTSGRAALGSVEPALGGLKSIWRCSQAFCSTPKGVTYRELKSLLNSKDIMLIDVRNTLEILEQGKIPGSINIPLDEVGEALQMNPVDFKEKYCQVKPSKSDRLVFSCLAGVRSKKAMDTAISLGFNSAQHYAGGWKEWVTYEISEEKQES,soluble
22,MLDLQGLEEIANVQMQLENIISKLNIPIIQKGVFDNEGYLKSIMRGMRDYICFKTSKKKYKTIKAQNVIIHPGSLISTDSVKYFVAGEIIETTKMYARSIGVLKKEWIDDIILNEEFKHNDISSKELEHHHHHH,not soluble
